Assay results reported in patent US20120065146A1 (published 2012).
One block for each binder: values may come before it. Starred links: 1 amine or outer side, 2 acyl side, 3 side chain; linkers in the order of their positions; H or OH if unused. Non-standard residues stand in square brackets, D forms with d. No end group written: not given here. F2Pmab = 2-amino-4,4-difluoro-3-methyl-4-phosphobutanoic acid, in place of p-Thr, C[C@H]([C@H](N[*:1])C(=O)[*:2])C(F)(F)P(=O)(O)O; Abu(3R-Me,4-PO3H2) = C[C@@H](CP(=O)(O)O)[C@H](N)C(=O)O; pT = C[C@@H](OP(=O)(O)O)[C@H](N)C(=O)O

Assays:
Flag-Plk3(K52R) [1] = molecular target: T1, Flag-Plk3(K52R) (UniProt Q9H4B4 40-646, K52R); assay: assay not given; pull-downs of Examples 3 and 6
T1 construct: A gift construct; K52 may be counted on another entry than the printed human one; not shown: Flag tag

HA-EGFP-Plk1 [2] = molecular target: T2, HA-EGFP-Plk1 (UniProt P53350 1-603); assay: ELISA competition (FIG. 16A)
T2 construct: also called full-length Plk1 (ELISA); not shown: HA tag and EGFP

HA-EGFP-Plk1 [3] = molecular target: T2, HA-EGFP-Plk1; assay: ELISA competition on immobilised biotinylated p-T78 9-mer (FIG. 16A)
[4] = molecular target: T3, Plk1 (endogenous, in mitotic HeLa cell lysates) (UniProt P53350 2-603); assay: pull-down from mitotic HeLa lysate with bead-immobilised peptide (FIG. 13A)
T3 construct: Endogenous full-length protein in total lysate of nocodazole-arrested HeLa cells; also called polo-like kinase 1

Flag-Plk2(K607R, Y626F) = molecular target: T4, Flag-Plk2(K607R, Y626F) (UniProt Q9NYY3 1-685); assay: pull-down of transfected HeLa lysate with immobilised MQSpTPL (FIG. 15B)
T4 construct: not shown: Flag tag

[5] = molecular target: T5, Flag-Plk2(L606F, K607R, 5608T, D609R, K610S, Y626F, H627Q) (UniProt Q9NYY3 1-685); assay: as above
T5 construct: 5608T is read as S608T; not shown: Flag tag

Flag-Plk3(K52R) [6] = molecular target: T1, Flag-Plk3(K52R); assay: pull-down from mixed HeLa lysates, anti-Flag blot (FIG. 4B)
[7] = molecular target: T3, Plk1 (endogenous, in mitotic HeLa cell …); assay: pull-down from mitotic HeLa lysate with bead-immobilised peptide (FIG. 4A)

T3 sequence (P53350 2-603 limits assumed): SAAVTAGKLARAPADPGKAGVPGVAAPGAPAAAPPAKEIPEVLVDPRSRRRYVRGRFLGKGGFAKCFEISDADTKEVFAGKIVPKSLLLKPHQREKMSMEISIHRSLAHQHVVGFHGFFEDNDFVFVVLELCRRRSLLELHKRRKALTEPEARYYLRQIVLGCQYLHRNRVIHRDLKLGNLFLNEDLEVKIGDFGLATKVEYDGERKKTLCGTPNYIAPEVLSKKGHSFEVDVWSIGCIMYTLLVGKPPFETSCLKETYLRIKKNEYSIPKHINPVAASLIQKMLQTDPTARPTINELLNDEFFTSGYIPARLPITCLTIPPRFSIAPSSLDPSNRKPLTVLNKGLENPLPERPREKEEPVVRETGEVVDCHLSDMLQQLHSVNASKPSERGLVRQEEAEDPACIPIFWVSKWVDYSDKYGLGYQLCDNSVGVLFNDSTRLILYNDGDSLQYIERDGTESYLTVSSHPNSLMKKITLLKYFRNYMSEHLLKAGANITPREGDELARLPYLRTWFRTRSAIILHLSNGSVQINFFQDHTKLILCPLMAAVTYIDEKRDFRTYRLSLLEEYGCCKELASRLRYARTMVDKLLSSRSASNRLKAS
T1 sequence (Q9H4B4 40-646 K91R): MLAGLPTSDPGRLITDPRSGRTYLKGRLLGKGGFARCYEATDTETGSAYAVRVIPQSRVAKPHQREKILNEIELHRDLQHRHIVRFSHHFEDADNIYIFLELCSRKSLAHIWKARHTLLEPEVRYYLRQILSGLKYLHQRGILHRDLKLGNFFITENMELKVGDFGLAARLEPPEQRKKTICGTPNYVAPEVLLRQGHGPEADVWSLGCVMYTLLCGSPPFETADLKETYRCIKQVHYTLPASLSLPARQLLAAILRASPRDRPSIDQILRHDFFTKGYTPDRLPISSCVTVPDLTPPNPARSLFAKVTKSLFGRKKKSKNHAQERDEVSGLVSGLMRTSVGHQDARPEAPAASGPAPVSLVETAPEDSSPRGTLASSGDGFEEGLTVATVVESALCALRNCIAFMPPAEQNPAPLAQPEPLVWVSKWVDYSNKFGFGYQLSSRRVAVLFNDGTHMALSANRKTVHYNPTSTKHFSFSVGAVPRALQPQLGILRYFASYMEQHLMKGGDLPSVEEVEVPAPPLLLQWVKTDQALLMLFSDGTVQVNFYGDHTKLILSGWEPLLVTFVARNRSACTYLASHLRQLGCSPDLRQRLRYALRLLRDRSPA
T2 sequence (P53350 whole entry): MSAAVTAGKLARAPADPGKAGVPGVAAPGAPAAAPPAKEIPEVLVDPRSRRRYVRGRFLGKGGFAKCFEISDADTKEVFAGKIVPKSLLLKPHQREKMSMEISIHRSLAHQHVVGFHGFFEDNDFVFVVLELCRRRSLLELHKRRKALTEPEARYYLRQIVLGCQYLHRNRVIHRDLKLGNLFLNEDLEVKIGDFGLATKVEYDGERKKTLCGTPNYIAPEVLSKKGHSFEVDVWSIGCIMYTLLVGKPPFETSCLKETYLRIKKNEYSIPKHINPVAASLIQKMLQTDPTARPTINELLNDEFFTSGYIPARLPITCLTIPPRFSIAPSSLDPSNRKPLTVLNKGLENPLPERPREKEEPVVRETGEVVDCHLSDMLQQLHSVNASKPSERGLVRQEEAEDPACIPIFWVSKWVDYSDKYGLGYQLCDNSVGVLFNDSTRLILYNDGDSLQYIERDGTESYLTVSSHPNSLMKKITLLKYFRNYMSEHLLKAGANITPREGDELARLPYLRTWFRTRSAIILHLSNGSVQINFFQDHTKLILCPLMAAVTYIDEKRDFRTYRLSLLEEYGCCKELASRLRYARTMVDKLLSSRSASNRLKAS
T4 sequence (Q9NYY3 whole entry K607R/Y626F): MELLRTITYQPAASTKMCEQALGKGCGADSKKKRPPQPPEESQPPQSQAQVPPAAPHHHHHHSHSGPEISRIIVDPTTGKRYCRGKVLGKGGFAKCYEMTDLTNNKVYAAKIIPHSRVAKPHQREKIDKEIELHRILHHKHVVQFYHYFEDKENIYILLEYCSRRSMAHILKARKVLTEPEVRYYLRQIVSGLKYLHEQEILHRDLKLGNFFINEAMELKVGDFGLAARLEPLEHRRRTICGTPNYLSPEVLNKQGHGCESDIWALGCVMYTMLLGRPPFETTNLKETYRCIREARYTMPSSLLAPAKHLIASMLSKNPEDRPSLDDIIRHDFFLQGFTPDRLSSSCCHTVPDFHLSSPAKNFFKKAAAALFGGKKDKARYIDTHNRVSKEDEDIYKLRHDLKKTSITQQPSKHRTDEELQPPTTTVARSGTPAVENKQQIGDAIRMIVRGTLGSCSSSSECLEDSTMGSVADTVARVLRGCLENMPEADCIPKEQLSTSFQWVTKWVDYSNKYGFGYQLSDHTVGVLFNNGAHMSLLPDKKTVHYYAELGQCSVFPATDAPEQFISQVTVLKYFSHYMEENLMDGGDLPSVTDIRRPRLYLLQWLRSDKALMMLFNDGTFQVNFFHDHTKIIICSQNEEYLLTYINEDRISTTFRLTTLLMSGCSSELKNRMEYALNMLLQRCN
T5 sequence (Q9NYY3 whole entry L606F/K607R/S608T/D609R/K610S/Y626F/H627Q): as the sequence (Q9NYY3 whole entry K607R/Y626F) above, with L606F, S608T, D609R, K610S, H627Q counted along it

binding result (Flag-Plk3(K52R) [1]): no binding
B1: PLHSpT (peptide)
peptide: PLHS[pT]
modifications: also: Ac and C-terminal amide in soluble form, N-terminal Cys-(CH2)6 linker in pull-down form
notes: Derived from the Thr78 region of PBIP1; also called Ac-PLHSpT-NH2; C-(CH2)6-PLHSpT

binding result (HA-EGFP-Plk1 [2]): binds
Binder: PLHS[F2Pmab]A (also: in pull-downs N-terminal Cys-(CH2)6 linker cross-linked to beads, also called C-(CH2)6-PLHS-F2Pmab-A) [PLHS-F2Pmab-A]

binding result [4]: no binding
B2: PLHA-F2Pmab-A (peptide)
peptide: PLHA[F2Pmab]A
modifications: also: in pull-downs N-terminal Cys-(CH2)6 linker cross-linked to beads
notes: also called F2Pmab(S77A); C-(CH2)6-PLHA-F2Pmab-A
binding result (HA-EGFP-Plk1 [3]): no binding (tested: 1000-fold higher molar concentrations)

binding result (Flag-Plk2(K607R, Y626F)): no binding
binding result [5]: no binding
Binder: MQS[pT]PL (also: in pull-downs N-terminal Cys-(CH2)6 linker cross-linked to beads, also called synthetic optimal peptide) [MQSpTPL]

binding result (Flag-Plk3(K52R) [6]): no binding
B3: PLHS-Pmab (peptide)
peptide: PLHS[Abu(3R-Me,4-PO3H2)]
modifications: also: N-acetylated in soluble form, N-terminal Cys-(CH2)6 linker in pull-down form
notes: also called C-(CH2)6-PLHS-Pmab

binding result [7]: no binding
B4: PLHA-Pmab (peptide)
peptide: PLHA[Abu(3R-Me,4-PO3H2)]
modifications: also: N-acetylated in soluble form
notes: also called Pmab(S77A); C-(CH2)6-PLHA-Pmab
